Source: FireProtDB (doi:10.1093/protein/9.5.425)

B1: Tryptophan synthase alpha chain, P0A877 (parent)
chain: MERYESLFAQLKERKEGAFVPFVTLGDPGIEQSLKIIDTLIEAGADALELGIPFSDPLADGPTIQNATLRAFAAGVTPAQCFEMLALIRQKHPTIPIGLLMYANLVFNKGIDEFYAQCEKVGVDSVLVADVPVEESAPFRQAALRHNVAPIFICPPNADDDLLRQIASYGRGYTYLLSRAGVTGAENRAALPLNHLVAKLKEYNAAPPLQGFGISAPDQVKAAIDAGAAGAISGSAIVKIIEQHINEPEKMLAALKVFVQPMKAATRS

Variants of: B1
Details: Escherichia coli (strain K12), pH 9, Thermal, DSC, Sodium tetraborate 1 mM, reversible: yes, structure 1WQ5, whole UniProt chain shown

C154A
ddG of mutation (higher = less stable) (50 °C): 1.03 kcal/mol
heat capacity change of unfolding (50 °C): 4.11 kcal/mol/K
unfolding free energy (50 °C): 0.14 kcal/mol
Tm: 50.6 °C
change of melting temperature, mutant - wild type (higher = more stable): -2.9 °C
heat capacity change of unfolding: 4.11 kcal/mol/K
unfolding enthalpy (calorimetric): 73 kcal/mol

C154S
Tm: 45.3 °C
change of melting temperature, mutant - wild type (higher = more stable): -8.2 °C
heat capacity change of unfolding: 3.52 kcal/mol/K
unfolding enthalpy (calorimetric): 46.4 kcal/mol

C154V
ddG of mutation (higher = less stable) (50 °C): 1.12 kcal/mol
heat capacity change of unfolding (50 °C): 4.21 kcal/mol/K
unfolding free energy (50 °C): 0.05 kcal/mol
Tm: 50.2 °C
change of melting temperature, mutant - wild type (higher = more stable): -3.3 °C
heat capacity change of unfolding: 4.21 kcal/mol/K
unfolding enthalpy (calorimetric): 71.5 kcal/mol

C118S
Tm: 45 °C
change of melting temperature, mutant - wild type (higher = more stable): -8.5 °C
heat capacity change of unfolding: 2.3 kcal/mol/K
unfolding enthalpy (calorimetric): 75.6 kcal/mol

C118V
Tm: 49.3 °C
change of melting temperature, mutant - wild type (higher = more stable): -4.2 °C
heat capacity change of unfolding: 2.42 kcal/mol/K
unfolding enthalpy (calorimetric): 73 kcal/mol

C118A
Tm: 49.2 °C
change of melting temperature, mutant - wild type (higher = more stable): -4.3 °C
heat capacity change of unfolding: 3.3 kcal/mol/K
unfolding enthalpy (calorimetric): 82.3 kcal/mol

C81G
Tm: 48.7 °C
change of melting temperature, mutant - wild type (higher = more stable): -4.8 °C
heat capacity change of unfolding: 6.82 kcal/mol/K
unfolding enthalpy (calorimetric): 104 kcal/mol

C81V
Tm: 49.1 °C
change of melting temperature, mutant - wild type (higher = more stable): -4.4 °C
heat capacity change of unfolding: 4.31 kcal/mol/K
unfolding enthalpy (calorimetric): 57.4 kcal/mol

C81A
ddG of mutation (higher = less stable) (50 °C): 0.69 kcal/mol
heat capacity change of unfolding (50 °C): 4.11 kcal/mol/K
unfolding free energy (50 °C): 0.48 kcal/mol
Tm: 51.8 °C
change of melting temperature, mutant - wild type (higher = more stable): -1.7 °C
heat capacity change of unfolding: 4.11 kcal/mol/K
unfolding enthalpy (calorimetric): 83.5 kcal/mol

C81S
Tm: 49.1 °C
change of melting temperature, mutant - wild type (higher = more stable): -4.4 °C
heat capacity change of unfolding: 5.02 kcal/mol/K
unfolding enthalpy (calorimetric): 92.8 kcal/mol
